Experimental data taken from US20250290928A1, “METHOD, KIT AND DEVICE FOR DETECTING EXTRACELLULAR VESICLES” (priority 2022, published 2025).
No end group written: not given here. *: point of attachment. 5FAM = O=C1OC2(c3ccc(O)cc3Oc3cc(O)ccc32)c2ccc(C(=O)*)cc21; TF3 = Tide Fluor 3, fluorescent dye; TQ2 = quencher; TQ3 = quencher

How the values were obtained:
[1] = target: T1, MMP14 in the MDA-MB-231-derived extracellular vesicles (Homo sapiens, UniProt P50281); assay: Evaluation of MMP14 activity of MDA-MB-231-derived extracellular vesicles with 96-well plate; assay type: biochemical
T1 construct: in terms of intact MMP14 with a molecular weight of 70 kDa
Description: A relative fluorescence unit difference ΔRFU was calculated by subtracting the measured value of the sample for BG measurement from the measured value of each of the samples.
The concentration of the solution is 41.7 μg/mL. The concentration of the solution was set to x1, and 2-fold serial dilution was performed to prepare standard samples with six concentrations.
50 μL of the MMP14 detection solution was added to 50 μL of each of the samples, a reaction was performed at 37° C., and MMP14 activity was evaluated.
The concentration of the solution is 10 μg/mL.
50 μL of each of the MMP14 detection solutions was added to 50 μL of each of the samples, a reaction was performed at 37° C., and MMP14 activity was evaluated. […]
The concentration of the solution is 20 μg/mL. The concentration of the solution was set to x1, and 3-fold serial dilution was performed to prepare standard samples with three concentrations.
The concentration of the solution is 8 μg/mL.
50 μL of each of the MMP14 detection solutions was added to 50 μL of the sample, a reaction was performed at 37° C., and MMP14 activity was evaluated. […]
50 μL of the MMP14 detection solution was added to 50 μL of each of the samples, a reaction was performed at 30° C., and MMP14 activity was evaluated.
The MMP14 activity of the extracellular vesicles was evaluated with a 96-well plate (137101). A fluorescence intensity was measured with a fluorescence plate reader (Synergy) at 30° C. every 5 minutes for 2 hours. For measurement wavelengths, an excitation wavelength of 545±20 nm and a fluorescence wavelength of 588±20 nm were used. A relative fluorescence unit difference (ΔRFU) was calculated by subtracting the measured value of the sample for BG measurement from the measured value of each of the samples.
50 μL of each of the MMP14 detection solutions was added to 50 μL of each of the samples, a reaction was performed at 30° C., and MMP14 activity was evaluated.

[2] = target: T1, MMP14 in the MDA-MB-231-derived extracellular vesicles; assay: Digital detection of MDA-MB-231-derived extracellular vesicles through MMP14 activity in wells (microcompartments); assay type: biochemical; settings: for Expected value λ / Number of positives / Positive ratio: reporter 5 μM, 30° C.
Description: The concentration of the solution is 6.7 μg/mL.
100 μL of the MMP14 detection solution was added to 100 μL of the sample to provide a reaction solution for wells. […] 100 μL of 200 μL of the prepared reaction solution for wells was used in the measurement of MMP14 activity with a 96-well plate.
Next, the wells were filled with the reaction solution by leaving the well array 200 to stand under reduced pressure to degas the space 205. After that, the space 205 was fed with hydrophobic solvents to be sealed. Fluorinated oils AsahiKlin AE-3000 (manufactured by AGC Inc.) and Fomblin Y-25 (manufactured by Solvay S.A.) were used as the hydrophobic solvents. A fluorinated oil Simoa (trademark) SR-X Sealing Oil: 102767 (manufactured by Quanterix Corporation) was further used as another hydrophobic solvent.
Well diameter: 4.25 μm Well depth: 3.25 μm Well capacity: 50 fL Number of wells in array: 239,000 Array range: 3 mm×4 mm
The concentration of the solution is 20 μg/mL. […] The concentration of the solution was set to x1, and 10-fold serial dilution was performed to prepare standard samples with five concentrations.
Next, the wells were filled with the reaction solution by leaving the well array 200 to stand under reduced pressure to degas the space 205. After that, the space 205 was fed with hydrophobic solvents to be sealed.
The concentration of the solution is 20 μg/mL. […] The concentration of the solution was set to x1, and 3-fold serial dilution was performed to prepare standard samples with three concentrations.
The concentration of the solution is 20 μg/mL. […] The concentration of the solution was set to x1, and 2-fold serial dilution was performed to prepare standard samples with four concentrations.
The concentration of the solution is 5 μg/mL.
50 μL of the MMP14 detection solution was added to 50 μL of the sample to provide a reaction solution for wells.
50 μL of each of the MMP14 detection solutions was added to 50 μL of the sample to provide a reaction solution for wells.
The concentration of the solution is 6.7 µg/mL.

[3] = Example 37, EV 5 μg/mL, reporter 5 μM, buffer (4)
[4] = MP, 1.25 μM with 5 μM Custom #2TF3
[5] = MP, 2.5 μM with 2.5 μM Custom #2TF3
[6] = Example 38, 4 hr, at a concentration of x1, 50 fL
[7] = Example 38, 24 hr, at a concentration of x1, 50 fL
[8] = Example 38, EV 2.5 μg/mL, 24 hr
[9] = Example 42, EV 2.5 μg/mL, 4 hr, TRITC filter
[10] = Example 42, EV 2.5 μg/mL, 24 hr, TRITC filter

With “TQ2-LAPLGLQRRK(5-FAM) (TQ2-LAPLGLQRRK(5FAM)) [Custom #11]” the “Fluorescence change after 2 hours of reaction at 30° C.” value (“Fluorescence change after 2 hours” for short) [1, 3] was 33,665 ΔRFU, the “Fluorescence change after 2 hours” value [1, 4] was 12,156 ΔRFU and the “Fluorescence change after 2 hours” value [1, 5] was 18,065 ΔRFU. The “Expected value λ (×1)” value ([2]; Example 38, 4 hr) was 0.5433, the Extracellular vesicle concentration [2, 6] was 1.087e+10 mL⁻¹ and the “Expected value λ (×1)” value ([2]; Example 38, 24 hr) was 1.166. For the same substance, the Extracellular vesicle concentration [2, 7] was 2.3319e+10 mL⁻¹, the “Expected value λ” value ([2]; Example 38, EV 2.5 μg/mL, 4 hr) was 0.1358 and the Number of positives ([2]; Example 38, EV 2.5 μg/mL, 4 hr) was 3,566. For the same substance, the Positive ratio ([2]; Example 38, EV 2.5 μg/mL, 4 hr) was 0.127, the “Expected value λ” value [2, 8] was 0.2915 and the Number of positives [2, 8] was 7,100. The Positive ratio [2, 8] was 0.2529.
In the case of TF3-GGPLGLAGGK(TQ3) [Custom #2TF3], the “Fluorescence change after 2 hours” value ([1]; Example 41, EV 5 μg/mL, reporter 5 μM, buffer (4), excitation 545±20 nm, fluorescence 588±20 nm) is reported as 3,791 ΔRFU, the “Fluorescence change after 2 hours” value ([1]; MP, 2.5 μM Custom #2TF3 with 2.5 μM Custom #11) is reported as 313 ΔRFU and the “Fluorescence change after 2 hours” value ([1]; MP, 2.5 μM Custom #2TF3 with 2.5 μM Custom #12) is reported as 319 ΔRFU. For the same substance, the “Fluorescence change after 2 hours” value ([1]; MP, 2.5 μM Custom #2TF3 with 2.5 μM Custom #13) was 452 ΔRFU, the “Fluorescence change after 2 hours” value ([1]; MP, 2.5 μM Custom #2TF3 with 2.5 μM Custom #14) was 397 ΔRFU and the “Fluorescence change after 2 hours” value ([1]; MP, 2.5 μM Custom #2TF3 with 2.5 μM Custom #15) was 551 ΔRFU. For the same substance, the “Fluorescence change after 2 hours” value ([1]; MP, 2.5 μM Custom #2TF3 with 2.5 μM Custom #16) was 1,085 ΔRFU, the “Fluorescence change after 2 hours” value ([1]; MP, 5 μM Custom #2TF3 with 1.25 μM Custom #11) was 772 ΔRFU and the “Fluorescence change after 2 hours” value ([1]; MP, 5 μM Custom #2TF3 with 1.25 μM Custom #12) was 618 ΔRFU. For the same substance, the “Fluorescence change after 2 hours” value ([1]; MP, 5 μM Custom #2TF3 with 1.25 μM Custom #13) was 814 ΔRFU, the “Fluorescence change after 2 hours” value ([1]; MP, 5 μM Custom #2TF3 with 1.25 μM Custom #14) was 714 ΔRFU and the “Fluorescence change after 2 hours” value ([1]; MP, 5 μM Custom #2TF3 with 1.25 μM Custom #15) was 1,023 ΔRFU. The “Fluorescence change after 2 hours” value ([1]; MP, 5 μM Custom #2TF3 with 1.25 μM Custom #16) was 1,857 ΔRFU, the “Expected value λ” value [2, 9] was 0.1432 and the Number of positives [2, 9] was 3,746. For the same substance, the Positive ratio [2, 9] was 0.1334, the “Expected value λ” value [2, 10] was 0.1447 and the Number of positives [2, 10] was 3,783. The Positive ratio [2, 10] was 0.1347, the “Expected value λ (×1)” value ([2]; single reporter, reaction 4 hr, at EV concentration x1) was 0.5727 and the Extracellular vesicle concentration ([2]; single reporter, reaction 4 hr, at x1, from λ (×1) and 50 fL microcompartment) was 1.1454e+10 mL⁻¹. The “Expected value λ (×1)” value ([2]; single reporter, reaction 24 hr, at EV concentration x1) was 0.5788 and the Extracellular vesicle concentration ([2]; single reporter, reaction 24 hr, at x1, from λ (×1) and 50 fL microcompartment) was 1.1576e+10 mL⁻¹.
With “TQ2-YPPRPLLARK(5-FAM) (TQ2-YPPRPLLARK(5FAM)) [Custom #15]” the “Fluorescence change after 2 hours” value [1, 3] was 16,774 ΔRFU, the “Fluorescence change after 2 hours” value [1, 4] was 9,131 ΔRFU and the “Fluorescence change after 2 hours” value [1, 5] was 10,890 ΔRFU. The “Expected value λ (×1)” value ([2]; Example 38, 4 hr) was 0.4993, the Extracellular vesicle concentration [2, 6] was 9.986e+09 mL⁻¹ and the “Expected value λ (×1)” value ([2]; Example 38, 24 hr) was 1.145. The Extracellular vesicle concentration [2, 7] was 2.289e+10 mL⁻¹, the “Expected value λ” value ([2]; Example 38, EV 2.5 μg/mL, 4 hr) was 0.1248 and the Number of positives ([2]; Example 38, EV 2.5 μg/mL, 4 hr) was 3,295. For the same substance, the Positive ratio ([2]; Example 38, EV 2.5 μg/mL, 4 hr) was 0.1173, the “Expected value λ” value [2, 8] was 0.2862 and the Number of positives [2, 8] was 6,988. The Positive ratio [2, 8] was 0.2489.
For “MCA-Pro-Leu-Ala-Cys(p-OMeBz)-Trp-Ala-Arg(Dpa)-NH2 [MMP-14 Substrate I]”, the “detection of MMP14 activity (fluorescence intensity increased with the reaction time)” value ([1]; Example 3, EV 5 μg/mL, reporter 10, 5 or 2.5 μM, 37° C., 2 hours) was “MMP14 activity was able to be detected”.
